The values below come from patent publication US20210324028A1 (Pfizer, published 2021).

Numbering of substitutions follows the chain as printed. Numbers in names are those of the source. Where only a bound is given, the exact number is not on record here.

The labels stand for the following.
T1: human IL-2Rβ (human, UniProt P14784 27-240, limits assumed)
T1 construct: also called hIL-2Rβ; IL-2 receptor beta
T1 sequence (looked up): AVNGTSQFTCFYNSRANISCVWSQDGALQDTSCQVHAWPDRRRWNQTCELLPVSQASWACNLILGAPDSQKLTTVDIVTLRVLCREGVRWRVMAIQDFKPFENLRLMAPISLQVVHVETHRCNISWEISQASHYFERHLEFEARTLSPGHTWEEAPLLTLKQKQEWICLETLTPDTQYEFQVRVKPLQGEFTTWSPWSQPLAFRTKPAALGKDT

B1: hIL-15 V49R/D8A (ligand)
chain: NWVNVISALKKIEDLIQSMHIDATLYTESDVHPSCKVTAMKCFLLELQRISLESGDASIHDTVENLIILANNSLSSNGNVTESGCKECEELEEKNIKEFLQSFVHIVQMFINTGGGGSGHHHHHHHHGGGLNDIFEAQKIEWHE
B2: hIL-15 V49R/D61N (ligand)
chain: B1 chain with A8D, D61N
B3: hIL-15 V49R/I68K (ligand)
chain: B1 chain with A8D, I68K
B4: hIL-15 V49R/D61S (ligand)
chain: B1 chain with A8D, D61S
B5: hIL-15 V49R/D8N (ligand)
chain: B1 chain with A8N
B6: hIL-15 V49R/K10P (ligand)
chain: B1 chain with A8D, K10P
B7: hIL-15 V49R/K11P (ligand)
chain: B1 chain with A8D, K11P
B8: hIL-15 V49R/N4K (ligand)
chain: B1 chain with N4K, A8D
B9: hIL-15 V49R/D61K (ligand)
chain: B1 chain with A8D, D61K
B10: hIL-15 V49R/D8K (ligand)
chain: B1 chain with A8K
B11: hIL-15 V49R/N4I (ligand)
chain: B1 chain with N4I, A8D
B12: hIL-15 V49R/D8S (ligand)
chain: B1 chain with A8S
B13: hIL-15 V49R/E64K (ligand)
chain: B1 chain with A8D, E64K
B14: hIL-15 V49R/I68S (ligand)
chain: B1 chain with A8D, I68S
B15: hIL-15 V49R/I68D (ligand)
chain: B1 chain with A8D, I68D
B16: hIL-15 V49R/S7N (ligand)
chain: B1 chain with S7N, A8D
B17: hIL-15 V49R/S7G (ligand)
chain: B1 chain with S7G, A8D
B18: hIL-15 V49R/S7A (ligand)
chain: B1 chain with S7A, A8D
B19: hIL-15 V49R/S7R (ligand)
chain: B1 chain with S7R, A8D
B20: hIL-15 V49R/S7Q (ligand)
chain: B1 chain with S7Q, A8D
B21: hIL-15 V49R/V31A (ligand)
chain: B1 chain with A8D, V31A
B22: hIL-15 V49R/V31D (ligand)
chain: B1 chain with A8D, V31D
B23: hIL-15 V49R/Q108S (ligand)
chain: B1 chain with A8D, Q108S
B24: hIL-15 V49R/S7E (ligand)
chain: B1 chain with S7E, A8D
B25: hIL-15 V49R/Q108K (ligand)
chain: B1 chain with A8D, Q108K
B26: hIL-15 V49R/S29N (ligand)
chain: B1 chain with A8D, S29N
B27: hIL-15 V49R/V31S (ligand)
chain: B1 chain with A8D, V31S
B28: hIL-15 V49R/S7D (ligand)
chain: B1 chain with S7D, A8D
B29: hIL-15 V49R/S29A (ligand)
chain: B1 chain with A8D, S29A
B30: hIL-15 V49R/S29K (ligand)
chain: B1 chain with A8D, S29K
B31: hIL-15 V49R/S7T (ligand)
chain: B1 chain with S7T, A8D
B32: hIL-15 V49R/S29D (ligand)
chain: B1 chain with A8D, S29D
B33: hIL-15 V49R/S7K (ligand)
chain: B1 chain with S7K, A8D
B34: hIL-15 V49R/S7H (ligand)
chain: B1 chain with S7H, A8D

T2 sequence (Q13261 31-205 limits assumed): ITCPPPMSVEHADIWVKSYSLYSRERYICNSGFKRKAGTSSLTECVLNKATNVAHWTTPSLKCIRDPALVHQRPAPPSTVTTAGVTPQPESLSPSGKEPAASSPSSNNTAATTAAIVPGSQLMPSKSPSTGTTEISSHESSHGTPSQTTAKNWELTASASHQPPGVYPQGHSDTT

The first experiment addresses T1, human IL-2Rβ. In words: SPR 37C.
Turning to B1, the binding result is “no binding”. On the same count and under the same terms, in the case of B2 it was “no binding”; in that of B3, “no binding”. Still for that read-out and setting: in the case of B4 it was “no binding”; in that of B5, “no binding”. Still for that read-out and setting: then B6, with “no binding”; and B7, with “no binding”.

On to B8, for which the binding result is listed as “no binding”. As to B9, the binding result is recorded as “no binding”. On the same count and under the same terms, then B10, with “no binding”; and B11, with “no binding”. On the same count and under the same terms, then B12, with “no binding”; and B13, with “no binding”; and B14, with “no binding”. Take B15: the binding result was “no binding”.

The next experiment concerns the target T1, human IL-2Rβ. In words: SPR, steady state.
In the case of B16, the Kd is greater than 500 nM.

B17 had a Kd greater than 500 nM. Still for that read-out and setting: in the case of B18 it was 220 nM; in that of B19, greater than 500 nM; in that of B20, 215 nM. On the same count and under the same terms, then B21, with 269 nM; and B22, with greater than 500 nM; and B23, with 290 nM.

Take B24: the Kd was greater than 500 nM.

B25: the Kd amounted to 249 nM. That is a sub-micromolar value.

Take B26: the Kd amounted to 322 nM. Still for that read-out and setting: then B27, with greater than 500 nM. Still for that read-out and setting: in the case of B28 it was greater than 500 nM; in that of B29, 274 nM; in that of B30, 248 nM. B31: the Kd is greater than 500 nM.

On to B32, for which the Kd was determined as 238 nM. On to B33, for which the equilibrium dissociation constant (Kd) is greater than 500 nM. The same measure, in the same setting: then B34, with 354 nM.

The next experiment addresses T2, human IL-15Rα (human, UniProt Q13261 31-205, limits assumed).
T2 construct: also called hIL-15Rα; IL-15 receptor alpha
Nature of the experiment: SPR, steady state.
Regarding B1, the Kd came out at 102 nM. Same read-out and setting: then B2, with 121 nM.

B3 returned a Kd of 94.2 nM. Same read-out and setting: then B4, with 102 nM; and B16, with 93.2 nM; and B17, with 147 nM. B5 registered a Kd of 119 nM. In turn, B18 displayed a Kd of 84 nM. The same measure, in the same setting: in the case of B19 it was 77 nM. Still for that read-out and setting: then B20, with 88.1 nM; and B21, with 129 nM; and B8, with 73.1 nM. Same read-out and setting: then B22, with greater than 500 nM; and B23, with 144 nM; and B24, with 87.6 nM. B25 gave a Kd of 85.4 nM. Same read-out and setting: in the case of B26 it was 154 nM; in that of B27, 265 nM. Same read-out and setting: in the case of B28 it was 121 nM; in that of B29, 154 nM; in that of B9, 116 nM.

Regarding B10, binding was put at a Kd of 101 nM. On the same count and under the same terms, in the case of B12 it was 124 nM; in that of B30, 261 nM. Same read-out and setting: then B13, with 164 nM; and B31, with 93.9 nM; and B32, with 121 nM. Same read-out and setting: then B14, with 104 nM; and B15, with 106 nM; and B33, with 103 nM. B34 registered a Kd of 75.6 nM.
